The results in this text go back to article PMC2192576 (1996).

First the molecules themselves.
T1: influenza virus (A/PR/8/34) HA (hemagglutinin) peptide on HLA-DRA*01:01 / HLA-DRB1*04:01 (human)
T1 peptide: PKYVKQNTLKLAT

T2: influenza virus (A/PR/8/34) HA (hemagglutinin) peptide on HLA-DRA*01:01 / HLA-DRB1*07:01 (human)
T2 peptide: PKYVKQNTLKLAT

B1: JS515.11 TCR (TCR, V domains shown)
Valpha: QSVTQLGSHVSVSEGALVLLRCNYSSSVPPYLFWYVQYPNQGLQLLLKYTTGATLVKGINGFEAEFKKSETSFHLTKPSAHMSDAAEYFCAVSEGGGSEKLVFGKGTKLTVNP
Vbeta: DVKVTQSSRYLVKRTGEKVFLECVQDMDHENMFWYRQDPGLGLRLIYFSYDVEMKEKGDIPEGYSVSREKKERFSLILESASTNQTSMYLCASSPGTSGTTYEQYFGPGTRLTVT
B2: hybrid TCR: JS515.11 TCRA with 3BC6.6 TCRB (TCR, V domains shown)
Valpha: B1 Valpha
Vbeta: DVKVTQSSRYLVKRTGEKVFLECVQDMDHENMFWYRQDPGLGLRLIYFSYDVEMKEKGDIPEGYSVSREKKERFSLILESASTNQTSMYLCASSLTTSGYTFGSGTRLTVV
B3: hybrid TCR: 3BC6.6 TCRA with JS515.11 TCRB (TCR, V domains shown)
Valpha: QSVTQLGSHVSVSEGALVLLRCNYSSSVPPYLFWYVQYPNQGLQLLLKYTSAATLVKGINGFEAEFKKSETSFHLTKPSAHMSDAAEYFCAVSEDTSYDKVIFGPGTSLSVIP
Vbeta: B1 Vbeta
B4: 3BC6.6 TCR (TCR, V domains shown)
Valpha: B3 Valpha
Vbeta: B2 Vbeta
B5: JS515.11 TCR with Gly-52 substituted with Ala in CDR2 of the alpha chain (TCR, V domains shown)
Valpha: B1 Valpha with G52A
Vbeta: B1 Vbeta
B6: JS515.11 TCR with Thr-51 substituted with Ser in CDR2 of the alpha chain (TCR, V domains shown)
Valpha: B1 Valpha with T51S
Vbeta: B1 Vbeta

Positions count from the first letter of the chain named.

The first test has as its target T1, influenza virus (A/PR/8/34) HA …. The test is described as follows: cytokine release.
Turning to B1, the binding result was “recognises”.

For the molecule B2, the binding result is listed as “no recognition”.

As to B3, the binding result is “no recognition”.

In the case of B4, the binding result was “recognises”.

The target of the next test is T2, influenza virus (A/PR/8/34) HA …. The test is described as follows: cytokine release.
Consider B1, for which the binding result is “recognises”.

With B5, the binding result was “recognises”.

For B2, the binding result was “no recognition”.

Take B3: the binding result is reported as “no recognition”.

B6: the binding result was “recognises”.

For B4, the binding result is recorded as “no recognition”.
